# Where no end group is shown, it is not given here.
# Biological target: monoclonal antibody mAB 198
# Test: peptide microarray, fluorescence, cyclic peptide
row,relative signal [%],Binder
1,10.3%,"LRWNPADYGGF (also: cyclic peptide, mode of cyclisation not given here)"
2,10.3%,"LRWNPADYR (also: cyclic peptide, mode of cyclisation not given here)"
3,9.9%,"TLRWNPADY (also: cyclic peptide, mode of cyclisation not given here)"
4,10.2%,"GSLRWNPADYD (also: cyclic peptide, mode of cyclisation not given here)"
5,10.7%,"QLRWNPADY (also: cyclic peptide, ring type and places not given here)"
6,10%,"VRLRINPADYG (also: cyclic peptide, mode of cyclisation not given here)"
7,10.8%,"RLHWNPADY (also: cyclic peptide, ring type and places not given here)"
8,10.5%,"VRLRWNPADYS (also: cyclic peptide, mode of cyclisation not given here)"
9,10.5%,"DVRLRWNPSDY (also: cyclic peptide, mode of cyclisation not given here)"
10,11.5%,"RIRWNPADY (also: cyclic peptide, ring type and places not given here)"
11,10.5%,"DVRLRYNPADY (also: cyclic peptide, mode of cyclisation not given here)"

# Second part, the binder before the results:
row,Binder,relative signal [%]
1,"RLRWNPADYGP (also: cyclic peptide, ring type and places not given here)",10%
2,"GSLRWNPADYN (also: cyclic peptide, mode of cyclisation not given here)",10%
3,"GGSLRWNPADR (also: cyclic peptide, mode of cyclisation not given here)",10.3%
4,"RLRQNPADY (not fully specified; cyclic peptide) [RLRONPADY, cyclic mimotope]",10.6%
5,"RLRWNPADYHG (also: cyclic peptide, ring type and places not given here)",10.1%
6,"LRPNPADYG (also: cyclic peptide, mode of cyclisation not given here)",10%
7,"GSLRFNPADYG (also: cyclic peptide, mode of cyclisation not given here)",10.4%
8,"RWNPADR (also: cyclic peptide, ring type and places not given here) [RWNPADR, cyclic mimotope]",11%
